Consider 11 sequences from the supplement of paper PMC11316812.

± gives the standard deviation of the averaged measurements.

Series [1] has as its system MCF7. As to the kind of experiment: percentage of EdU-negative (G0-arrested) nuclei per well, 72 h; higher = more G0 arrest. As to conditions: reference: sequence is the full UniProt precursor, the tested protein was the secreted form or ectodomain.
Series [2] deals with hTERT-HMEC. The series is described as above. As to conditions: reference: sequence is the full UniProt precursor, the tested protein was the secreted form or ectodomain.
Setting [3] is: protein concentration 0.0257143 µM.
Setting [4] is: protein concentration 0.257143 µM.
Where [5] appears, read: protein concentration 0.01775 µM.
[6] abbreviates: protein concentration 0.1775 µM.
Where [7] appears, read: protein concentration 0.01422 µM.
The mark [8] stands for this setting: protein concentration 0.1422 µM.
[9] abbreviates: protein concentration 0.0225 µM.
The mark [10] stands for this setting: protein concentration 0.03034 µM.
Setting [11] is: protein concentration 0.3034 µM.
The mark [12] stands for this setting: protein concentration 0.03125 µM.
Setting [13] is: protein concentration 0.3125 µM.
Setting [14] is: protein concentration 0.0357143 µM.
[15] abbreviates: protein concentration 0.357143 µM.
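Note: secreted proteins added to cultured cells, EdU pulse at the end, nuclei found by Hoechst imaging, EdU status from nuclear versus surrounding ring intensity ratio, PBS as neutral control.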

Consider “MAKDFQDIQQLSSEENDHPFHQGEGPGTRRLNPRRGNPFLKGPPPAQPLAQRLCSMVCFSLLALSFNILLLVVICVTGSQSEGHGGAQLQAELRSLKEAFSNFSSSTLTEVQAISTHGGSVGDKITSLGAKLEKQQQDLKADHDALLFHLKHFPVDLRFVACQMELLHSNGSQRTCCPVNWVEHQGSCYWFSHSGKAWAEAEKYCQLENAHLVVINSWEEQKFIVQHTNPFNTWIGLTDSDGSWKWVDGTDYRHNYKNWAVTQPDNWHGHELGGSEDCVEVQPDGRWNDDFCLQVYRWVCEKRRNATGEVA”, for which the “percentage of EdU-negative” value was determined as 27 ± 1.8% in series [1] (setting [3]), 25.3 ± 2.7% in series [1] (setting [4]), 4.62 ± 0.061% in series [2] (setting [3]) and 5.93 ± 0.22% in series [2] (setting [4]).

Regarding “MASWLRRKLRGKRRPVIAFCLLMILSAMAVTRFPPQRPSAGPDPGPMEPQGVTGAPATHIRQALSSSRRQRARNMGFWRSRALPRNSILVCAEEQGHRARVDRSRESPGGDLRHPGRVRRDITLSGHPRLSTQHVVLLREDEVGDPGTKDLGHPQHGSPIQETQSEVVTLVSPLPGSDMAALPAWRATSGLTLWPHTAEGRDLLGAENRALTGGQQAEDPTLASGAHQWPGSVEKLQGSVWCDAETLLSSSRTGGQAPPWLTDHDVQMLRLLAQGEVVDKARVPAHGQVLQVGFSTEAALQDLSSPRLSQLCSQGLCGLIKRPGDLPEVLSFHVDRVLGLRRSLPAVARRFHSPLLPYRYTDGGARPVIWWAPDVQHLSDPDEDQNSLALGWLQYQALLAHSCNWPGQAPCPGIHHTEWARLALFDFLLQVHDRLDRYCCGFEPEPSDPCVEERLREKCQNPAELRLVHILVRSSDPSHLVYIDNAGNLQHPEDKLNFRLLEGIDGFPESAVKVLASGCLQNMLLKSLQMDPVFWESQGGAQGLKQVLQTLEQRGQVLLGHIQKHNLTLFRDEDP [Q9UFP1]”, the “percentage of EdU-negative” value in series [1] (setting [5]) was determined as 25.4 ± 2.1%; in series [1] (setting [6]), 24.5 ± 4.3%; in series [2] (setting [5]), 4.53 ± 0.69%; in series [2] (setting [6]), 4.83 ± 0.99%.

Consider “MGAPACALALCVAVAIVAGASSESLGTEQRVVGRAAEVPGPEPGQQEQLVFGSGDAVELSCPPPGGGPMGPTVWVKDGTGLVPSERVLVGPQRLQVLNASHEDSGAYSCRQRLTQRVLCHFSVRVTDAPSSGDDEDGEDEAEDTGVDTGAPYWTRPERMDKKLLAVPAANTVRFRCPAAGNPTPSISWLKNGREFRGEHRIGGIKLRHQQWSLVMESVVPSDRGNYTCVVENKFGSIRQTYTLDVLERSPHRPILQAGLPANQTAVLGSDVEFHCKVYSDAQPHIQWLKHVEVNGSKVGPDGTPYVTVLKTAGANTTDKELEVLSLHNVTFEDAGEYTCLAGNSIGFSHHSAWLVVLPAEEELVEADEAGSVYAGILSYGVGFFLFILVVAAVTLCRLRSPPKKGLGSPTVHKISRFPLKRQVSLESNASMSSNTPLVRIARLSSGEGPTLANVSELELPADPKWELSRARLTLGKPLGEGCFGQVVMAEAIGIDKDRAAKPVTVAVKMLKDDATDKDLSDLVSEMEMMKMIGKHKNIINLLGACTQGGPLYVLVEYAAKGNLREFLRARRPPGLDYSFDTCKPPEEQLTFKDLVSCAYQVARGMEYLASQKCIHRDLAARNVLVTEDNVMKIADFGLARDVHNLDYYKKTTNGRLPVKWMAPEALFDRVYTHQSDVWSFGVLLWEIFTLGGSPYPGIPVEELFKLLKEGHRMDKPANCTHDLYMIMRECWHAAPSQRPTFKQLVEDLDRVLTVTSTDEYLDLSAPFEQYSPGGQDTPSSSSSGDDSVFAHDLLPPAPPSSGGSRT”, for which the “percentage of EdU-negative” value amounted to 27.1 ± 3.1% in series [1] (setting [7]), 25.5 ± 3.1% in series [1] (setting [8]), 5.58 ± 0.063% in series [2] (setting [7]) and 5.64 ± 0.3% in series [2] (setting [8]).

“MSSENCFVAENSSLHPESGQENDATSPHFSTRHEGSFQVPVLCAVMNVVFITILIIALIALSVGQYNCPGQYTFSMPSDSHVSSCSEDWVGYQRKCYFISTVKRSWTSAQNACSEHGATLAVIDSEKDMNFLKRYAGREEHWVGLKKEPGHPWKWSNGKEFNNWFNVTGSDKCVFLKNTEVSSMECEKNLYWICNKPYK”: the “percentage of EdU-negative” value in series [1] (setting [9]) came to 23.5 ± 0.69%; in series [1] (protein concentration 0.225 µM), 23.6 ± 0.57%; in series [2] (setting [9]), 5.44 ± 1.4%; in series [2] (protein concentration 0.225 µM), 5.3 ± 0.56%.

As to “MQGAQEASASEMLPLLLPLLWAGALAQERRFQLEGPESLTVQEGLCVLVPCRLPTTLPASYYGYGYWFLEGADVPVATNDPDEEVQEETRGRFHLLWDPRRKNCSLSIRDARRRDNAAYFFRLKSKWMKYGYTSSKLSVRVMALTHRPNISIPGTLESGHPSNLTCSVPWVCEQGTPPIFSWMSAAPTSLGPRTTQSSVLTITPRPQDHSTNLTCQVTFPGAGVTMERTIQLNVSYAPQKVAISIFQGNSAAFKILQNTSSLPVLEGQALRLLCDADGNPPAHLSWFQGFPALNATPISNTGVLELPQVGSAEEGDFTCRAQHPLGSLQISLSLFVHWKPEGRAGGVLGAVWGASITTLVFLCVCFIFRVKTRRKKAAQPVQNTDDVNPVMVSGSRGHQHQFQTGIVSDHPAEAGPISEDEQELHYAVLHFHKVQPQEPKVTDTEYSEIKIHK”, the “percentage of EdU-negative” value in series [1] (setting [10]) came out at 22.4 ± 2.3%; in series [1] (setting [11]), 27.1 ± 0.29%; in series [2] (setting [10]) it was 5.1074 ± 0.0018%; in series [2] (setting [11]), 5.306 ± 0.046%.

With “MDSSREPTLGRLDAAGFWQVWQRFDADEKGYIEEKELDAFFLHMLMKLGTDDTVMKANLHKVKQQFMTTQDASKDGRIRMKELAGMFLSEDENFLLLFRRENPLDSSVEFMQIWRKYDADSSGFISAAELRNFLRDLFLHHKKAISEAKLEEYTGTMMKIFDRNKDGRLDLNDLARILALQENFLLQFKMDACSTEERKRDFEKIFAYYDVSKTGALEGPEVDGFVKDMMELVQPSISGVDLDKFREILLRHCDVNKDGKIQKSELALCLGLKINP”, the “percentage of EdU-negative” value in series [1] (setting [9]) was found to be 40.5 ± 16%; in series [1] (protein concentration 0.225 µM), 25.7 ± 0.85%; in series [2] (setting [9]), 4.77 ± 0.84%; in series [2] (protein concentration 0.225 µM), 5.6 ± 0.67%.

As for “MKLAFLFLGPMALLLLAGYGCVLGASSGNLRTFVGCAVREFTFLAKKPGCRGLRITTDACWGRCETWEKPILEPPYIEAHHRVCTYNETKQVTVKLPNCAPGVDPFYTYPVAIRCDCGACSTATTECETI [Q86YW7]”, the “percentage of EdU-negative” value in series [1] (setting [9]) came out at 25.3 ± 2.8%; in series [1] (protein concentration 0.225 µM), 25.8 ± 1.5%; in series [2] (setting [9]) it was 5.52 ± 0.71%; in series [2] (protein concentration 0.225 µM) it was 5.1 ± 0.082%.

Regarding “MDTIFLWSLLLLFFGSQASRCSAQKNTEFAVDLYQEVSLSHKDNIIFSPLGITLVLEMVQLGAKGKAQQQIRQTLKQQETSAGEEFFVLKSFFSAISEKKQEFTFNLANALYLQEGFTVKEQYLHGNKEFFQSAIKLVDFQDAKACAEMISTWVERKTDGKIKDMFSGEEFGPLTRLVLVNAIYFKGDWKQKFRKEDTQLINFTKKNGSTVKIPMMKALLRTKYGYFSESSLNYQVLELSYKGDEFSLIIILPAEGMDIEEVEKLITAQQILKWLSEMQEEEVEISLPRFKVEQKVDFKDVLYSLNITEIFSGGCDLSGITDSSEVYVSQVTQKVFFEINEDGSEAATSTGIHIPVIMSLAQSQFIANHPFLFIMKHNPTESILFMGRVTNPDTQEIKGRDLDSL”, the “percentage of EdU-negative” value in series [1] (setting [12]) was determined as 24 ± 0.53%; in series [1] (setting [13]) it was 24.9 ± 1.8%; in series [2] (setting [12]), 4.81 ± 0.69%; in series [2] (setting [13]), 6.48 ± 0.78%.

For “MALSWVLTVLSLLPLLEAQIPLCANLVPVPITNATLDRITGKWFYIASAFRNEEYNKSVQEIQATFFYFTPNKTEDTIFLREYQTRQNQCFYNSSYLNVQRENGTVSRYEGGREHVAHLLFLRDTKTLMFGSYLDDEKNWGLSFYADKPETTKEQLGEFYEALDCLCIPRSDVMYTDWKKDKCEPLEKQHEKERKQEEGES”, the “percentage of EdU-negative” value worked out at 25.4 ± 2.9% in series [1] (setting [9]), 25.1 ± 3.5% in series [1] (protein concentration 0.225 µM), 4.9 ± 0.092% in series [2] (setting [9]) and 5.06 ± 0.15% in series [2] (protein concentration 0.225 µM).

On to “MGPLSAPPCTEHIKWKGLLVTASLLNFWNLPTTAQVTIEAQPPKVSEGKDVLLLVHNLPQNLTGYIWYKGQIRDLYHYITSYVVDGQIIIYGPAYSGRETAYSNASLLIQNVTREDAGSYTLHIIKRGDGTRGVTGYFTFTLYLETPKPSISSSNLNPREAMETVILTCDPETPDTSYQWWMNGQSLPMTHRFQLSETNRTLFLFGVTKYTAGPYECEIRNSGSASRSDPVTLNLLHGPDLPRIHPSYTNYRSGDNLYLSCFANSNPPAQYSWTINGKFQQSGQNLFIPQITTKHSGLYVCSVRNSATGEESSTSLTVKVSASTRIGLLPLLNPT”, for which the “percentage of EdU-negative” value in series [1] (setting [14]) came to 24.9 ± 2.1%; in series [1] (setting [15]), 25.4 ± 0.54%; in series [2] (setting [14]), 4.65 ± 0.56%; in series [2] (setting [15]), 5.32 ± 1.1%.

Turning to “MGTSPSSSTALASCSRIARRATATMIAGSLLLLGFLSTTTAQPEQKASNLIGTYRHVDRATGQVLTCDKCPAGTYVSEHCTNTSLRVCSSCPVGTFTRHENGIEKCHDCSQPCPWPMIEKLPCAALTDRECTCPPGMFQSNATCAPHTVCPVGWGVRKKGTETEDVRCKQCARGTFSDVPSSVMKCKAYTDCLSQNLVVIKPGTKETDNVCGTLPSFSSSTSPSPGTAIFPRPEHMETHEVPSSTYVPKGMNSTESNSSASVRPKVLSSIQEGTVPDNTSSARGKEDVNKTLPNLQVVNHQQGPHHRHILKLLPSMEATGGEKSSTPIKGPKRGHPRQNLHKHFDINEHLPWMIVLFLLLVLVVIVVCSIRKSSRTLKKGPRQDPSAIVEKAGLKKSMTPTQNREKWIYYCNGHGIDILKLVAAQVGSQWKDIYQFLCNASEREVAAFSNGYTADHERAYAALQHWTIRGPEASLAQLISALRQHRRNDVVEKIRGLMEDTTQLETDKLALPMSPSPLSPSPIPSPNAKLENSALLTVEPSPQDKNKGFFVDESEPLLRCDSTSSGSSALSRNGSFITKEKKDTVLRQVRLDPCDLQPIFDDMLHFLNPEELRVIEEIPQAEDKLDRLFEIIGVKSQEASQTLLDSVYSHLPDLL”, the “percentage of EdU-negative” value in series [1] (setting [9]) is 27.8 ± 0.67%; in series [1] (protein concentration 0.225 µM), 25.7 ± 4.1%; in series [2] (setting [9]), 4.84 ± 0.51%; in series [2] (protein concentration 0.225 µM), 5.355 ± 0.035%.
